{"source": "paper PMC11992676", "molecular_target": "T1, TRF1 (recombinant, in-house purified) (UniProt P54274)", "T1 sequence": "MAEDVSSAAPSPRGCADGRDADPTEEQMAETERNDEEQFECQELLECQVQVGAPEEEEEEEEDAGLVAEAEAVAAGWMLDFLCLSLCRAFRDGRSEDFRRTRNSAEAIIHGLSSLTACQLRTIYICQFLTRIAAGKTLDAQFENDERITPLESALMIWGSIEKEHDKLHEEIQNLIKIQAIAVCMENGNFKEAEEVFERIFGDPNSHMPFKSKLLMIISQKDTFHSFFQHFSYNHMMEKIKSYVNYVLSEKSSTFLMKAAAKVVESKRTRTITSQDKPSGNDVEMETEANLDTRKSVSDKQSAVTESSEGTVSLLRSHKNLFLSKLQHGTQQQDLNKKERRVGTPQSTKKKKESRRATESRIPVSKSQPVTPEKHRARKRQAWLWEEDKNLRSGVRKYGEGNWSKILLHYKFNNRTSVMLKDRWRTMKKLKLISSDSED", "experiment": "EMSA", "conditions": "2 mM Mg2+, 50 mM Tris-Cl pH 8.0, 2 mM MgCl2, 150 mM KCl, 0.5 mM DTT, 10% glycerol, 5 nM oligonucleotide, 30 min room temperature, 1% agarose gel in 1x TBE at 4 C"}
{"sequence": "GACCATGCTTAGGGTTAGGGTTAGGGTTAGGGTTATCATACAA (double strand) [TelDNA]", "values": [{"measurement": "binding signal", "setting": "scale: fold", "result": 1}]}
{"sequence": "GACCATGCTTATCCCCATTTGTATTATCCCCATTTCATACAAA (double strand) [Non-TelDNA]", "values": [{"measurement": "binding signal (fold lower binding than TelDNA)", "result": 5}]}
{"sequence": "GACCAUGCUUAGGGUUAGGGUUAGGGUUAGGGUUAUCAUACAA / TTGTATGATAACCCTAACCCTAACCCTAACCCTAAGCATGGTC [Telomeric DNA:RNA hybrid]", "values": [{"measurement": "binding signal (fold lower affinity than TelDNA)", "setting": "strand 1 is RNA, strand 2 is DNA", "result": 7}]}
